Assay results from patent publication US9994628B2, “Peptides and combination of peptides for use in immunotherapy against various tumors” (IMMATICS BIOTECHNOLOGIES GMBH, priority 2015, dated 2018).

Target: HLA-A*02:01 (Homo sapiens, UniProt P04439, D140Y/D185E/D98H/E176V/E277Q/G131W/G231S/I119V/I121R/I166T/I218V/L300P/L318F/N151K/N90K/P208A/P217A/Q86G/Q94H/R138H/R169H/T345S)
Test: MHC binding assay: UV-ligand exchange and β2m ELISA (peptide exchange yield, Table 7)
Conditions: binding of HLA-class I restricted peptides to HLA-A*02:01, UV-ligand exchange
Text: Candidate peptides for T cell based therapies according to the present invention were further tested for their MHC binding capacity (affinity). The individual peptide-MHC complexes were produced by UV-ligand exchange, where a UV-sensitive peptide is cleaved upon UV-irradiation, and exchanged with the peptide of interest as analyzed. Only peptide candidates that can effectively bind and stabilize the peptide-receptive MHC molecules prevent dissociation of the MHC complexes. To determine the yield of the exchange reaction, an ELISA was performed based on the detection of the light chain (β2 m) of stabilized MHC complexes. The assay was performed as generally described in Rodenko et al. (Rodenko et al., 2006).
96 well MAXISorp plates (NUNC) were coated over night with 2 ug/ml streptavidin in PBS at room temperature, washed 4× and blocked for 1 h at 37° C. in 2% BSA containing blocking buffer. Refolded HLA-A*02:01/MLA-001 monomers served as standards, covering the range of 15-500 ng/ml. Peptide-MHC monomers of the UV-exchange reaction were diluted 100 fold in blocking buffer. Samples were incubated for 1 h at 37° C., washed four times, incubated with 2 ug/ml HRP conjugated anti-β2 m for 1 h at 37° C., washed again and detected with TMB solution that is stopped with […]. Absorption was measured at 450 nm. Candidate peptides that show a high exchange yield (preferably higher than 50%, most preferred higher than 75%) are generally preferred for a generation and production of antibodies or fragments thereof, and/or T cell receptors or fragments thereof, as they show sufficient avidity to the MHC molecules and prevent dissociation of the MHC complexes.

With “67 (FLIENLLAA; listed as Homo sapiens) [compound 67]” the “Peptide exchange (MHC class I binding score, peptide exchange yield)” value (shortened to “Peptide exchange”) was “+++ (≥50% = +++)”.

With “68 (QLMNLIRSV; listed as Homo sapiens) [compound 68]” the “Peptide exchange” value was “+++ (≥50% = +++)”.

For “69 (LKVLKADVVL; listed as Homo sapiens) [compound 69]”, the “Peptide exchange” value was “++ (≥20% = ++)”.

“70 (GLTEKTVLV; listed as Homo sapiens) [compound 70]” was tested, and the “Peptide exchange” value was “++ (≥20% = ++)”.

For “71 (HMSGKLTNV; listed as Homo sapiens) [compound 71]”, the “Peptide exchange” value was “++ (≥20% = ++)”.

For “72 (VLSTRVTNV; listed as Homo sapiens) [compound 72]”, the “Peptide exchange” value was “++ (≥20% = ++)”.

For “74 (GLAFLPASV; listed as Homo sapiens) [compound 74]”, the “Peptide exchange” value was “++ (≥20% = ++)”.

With “75 (ALLDGALQL; listed as Homo sapiens) [compound 75]” the “Peptide exchange” value was “+++ (≥50% = +++)”.

With “76 (FTAEFLEKV; listed as Homo sapiens) [compound 76]” the “Peptide exchange” value was “+++ (≥50% = +++)”.

With “77 (ALYGNVQQV; listed as Homo sapiens) [compound 77]” the “Peptide exchange” value was “+++ (≥50% = +++)”.

In the case of “79 (TVLEEIGNRV; listed as Homo sapiens) [compound 79]”, the “Peptide exchange” value is reported as “++ (≥20% = ++)”.

With “80 (VLTGQVHEL; listed as Homo sapiens) [compound 80]” the “Peptide exchange” value was “+++ (≥50% = +++)”.

“81 (ILAEEPIYI; listed as Homo sapiens) [compound 81]” was tested, and the “Peptide exchange” value was “++ (≥20% = ++)”.

With “82 (ILAEEPIYIRV; listed as Homo sapiens) [compound 82]” the “Peptide exchange” value was “+++ (≥50% = +++)”.

“83 (GLLENSPHL; listed as Homo sapiens) [compound 83]” was tested, and the “Peptide exchange” value was “++ (≥20% = ++)”.

With “84 (FLLEREQLL; listed as Homo sapiens) [compound 84]” the “Peptide exchange” value was “++++ (≥75% = ++++)”.

“85 (KLLDKPEQFL; listed as Homo sapiens) [compound 85]” was tested, and the “Peptide exchange” value was “++ (≥20% = ++)”.

“86 (SLFSNIESV; listed as Homo sapiens) [compound 86]” was tested, and the “Peptide exchange” value was “+++ (≥50% = +++)”.

“87 (KLLSLLEEA; listed as Homo sapiens) [compound 87]” was tested, and the “Peptide exchange” value was “+++ (≥50% = +++)”.

With “88 (LLLPLELSLA; listed as Homo sapiens) [compound 88]” the “Peptide exchange” value was “+++ (≥50% = +++)”.

For “89 (SLAETIFIV; listed as Homo sapiens) [compound 89]”, the “Peptide exchange” value was “+++ (≥50% = +++)”.

“90 (AILNVDEKNQV; listed as Homo sapiens) [compound 90]” was tested, and the “Peptide exchange” value was “++ (≥20% = ++)”.

For “91 (LLPSIFLMV; listed as Homo sapiens) [compound 91]”, the “Peptide exchange” value was “++ (≥20% = ++)”.

For “92 (RLFEEVLGV; listed as Homo sapiens) [compound 92]”, the “Peptide exchange” value was “++++ (≥75% = ++++)”.

In the case of “93 (RLYGYFHDA; listed as Homo sapiens) [compound 93]”, the “Peptide exchange” value is reported as “++ (≥20% = ++)”.

With “94 (YLDEVAFML; listed as Homo sapiens) [compound 94]” the “Peptide exchange” value was “+++ (≥50% = +++)”.

With “95 (KLIDEDEPLFL; listed as Homo sapiens) [compound 95]” the “Peptide exchange” value was “+++ (≥50% = +++)”.

For “96 (ALDTTRHEL; listed as Homo sapiens) [compound 96]”, the “Peptide exchange” value was “++ (≥20% = ++)”.

In the case of “97 (KLFEKSTGL; listed as Homo sapiens) [compound 97]”, the “Peptide exchange” value is reported as “+++ (≥50% = +++)”.

In the case of “98 (FVQEKIPEL; listed as Homo sapiens) [compound 98]”, the “Peptide exchange” value is reported as “+++ (≥50% = +++)”.

“99 (TLFGIQLTEA; listed as Homo sapiens) [compound 99]” was tested, and the “Peptide exchange” value was “+++ (≥50% = +++)”.

“100 (ALQSFEFRV; listed as Homo sapiens) [compound 100]” was tested, and the “Peptide exchange” value was “+++ (≥50% = +++)”.

With “101 (SLLEVNEASSV; listed as Homo sapiens) [compound 101]” the “Peptide exchange” value was “+++ (≥50% = +++)”.

For “102 (GLYPVTLVGV; listed as Homo sapiens) [compound 102]”, the “Peptide exchange” value was “+++ (≥50% = +++)”.

In the case of “103 (YLADTVQKL; listed as Homo sapiens) [compound 103]”, the “Peptide exchange” value is reported as “++ (≥20% = ++)”.

With “105 (AMLASQTEA; listed as Homo sapiens) [compound 105]” the “Peptide exchange” value was “++ (≥20% = ++)”.

With “106 (VLLGSVVIFA; listed as Homo sapiens) [compound 106]” the “Peptide exchange” value was “++ (≥20% = ++)”.

In the case of “107 (RVLPGQAVTGV; listed as Homo sapiens) [compound 107]”, the “Peptide exchange” value is reported as “++ (≥20% = ++)”.

With “108 (FIANLPPELKA; listed as Homo sapiens) [compound 108]” the “Peptide exchange” value was “+++ (≥50% = +++)”.

For “109 (ILGSFELQL; listed as Homo sapiens) [compound 109]”, the “Peptide exchange” value was “+++ (≥50% = +++)”.

With “110 (QIQGQVSEV; listed as Homo sapiens) [compound 110]” the “Peptide exchange” value was “++ (≥20% = ++)”.

For “111 (AQLEGKLVSI; listed as Homo sapiens) [compound 111]”, the “Peptide exchange” value was “+++ (≥50% = +++)”.

With “112 (ILAQDVAQL; listed as Homo sapiens) [compound 112]” the “Peptide exchange” value was “+++ (≥50% = +++)”.

“113 (FLFLKEVKV; listed as Homo sapiens) [compound 113]” was tested, and the “Peptide exchange” value was “++ (≥20% = ++)”.

With “114 (LLFPSDVQTL; listed as Homo sapiens) [compound 114]” the “Peptide exchange” value was “++ (≥20% = ++)”.

For “115 (ILHGEVNKV; listed as Homo sapiens) [compound 115]”, the “Peptide exchange” value was “++ (≥20% = ++)”.

With “116 (ALLSSVAEA; listed as Homo sapiens) [compound 116]” the “Peptide exchange” value was “++ (≥20% = ++)”.

In the case of “117 (TLLEGISRA; listed as Homo sapiens) [compound 117]”, the “Peptide exchange” value is reported as “++ (≥20% = ++)”.

For “119 (SLIEESEEL; listed as Homo sapiens) [compound 119]”, the “Peptide exchange” value was “++ (≥20% = ++)”.

For “121 (ALYVQAPTV; listed as Homo sapiens) [compound 121]”, the “Peptide exchange” value was “++ (≥20% = ++)”.

With “122 (SIIDTELKV; listed as Homo sapiens) [compound 122]” the “Peptide exchange” value was “+++ (≥50% = +++)”.

For “123 (QTAPEEAFIKL; listed as Homo sapiens) [compound 123]”, the “Peptide exchange” value was “+ (≥10% = +)”.

With “124 (ALLLRLFTI; listed as Homo sapiens) [compound 124]” the “Peptide exchange” value was “++ (≥20% = ++)”.

For “125 (AALEVLAEV; listed as Homo sapiens) [compound 125]”, the “Peptide exchange” value was “+++ (≥50% = +++)”.

For “126 (QLREAFEQL; listed as Homo sapiens) [compound 126]”, the “Peptide exchange” value was “+++ (≥50% = +++)”.

With “128 (SILTNISEV; listed as Homo sapiens) [compound 128]” the “Peptide exchange” value was “++ (≥20% = ++)”.

“129 (KMASKVTQV; listed as Homo sapiens) [compound 129]” was tested, and the “Peptide exchange” value was “++ (≥20% = ++)”.

With “130 (QLYGSAITL; listed as Homo sapiens) [compound 130]” the “Peptide exchange” value was “+++ (≥50% = +++)”.

In the case of “131 (SLYPHFTLL; listed as Homo sapiens) [compound 131]”, the “Peptide exchange” value is reported as “+++ (≥50% = +++)”.

With “132 (ALLNNVIEV; listed as Homo sapiens) [compound 132]” the “Peptide exchange” value was “+++ (≥50% = +++)”.

“133 (FLDGRPLTL; listed as Homo sapiens) [compound 133]” was tested, and the “Peptide exchange” value was “++ (≥20% = ++)”.

With “134 (SLYKSFLQL; listed as Homo sapiens) [compound 134]” the “Peptide exchange” value was “++ (≥20% = ++)”.
